Experimental data taken from US20200347127A1 (CRESCENDO BIOLOGICS, published 2020).

What was measured:
[1] = target: T1, recombinant human IL-17A (human, UniProt Q16552 24-155); experiment: cell-based or functional assay
[2] = target: T1, recombinant human IL-17A; experiment: SPR (BIAcore T200), IL-17A coupled to CM5 chip, single-cycle kinetics;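 further: VH domain analytes, kinetic constants obtained by fitting blank-corrected sensorgrams to a 1:1 binding model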
Protocol: VH binding kinetics were then determined from the (blank subtracted) sensorgram traces using 1:1 binding models and BIAevaluation software.

T1 sequence (Q16552 24-155): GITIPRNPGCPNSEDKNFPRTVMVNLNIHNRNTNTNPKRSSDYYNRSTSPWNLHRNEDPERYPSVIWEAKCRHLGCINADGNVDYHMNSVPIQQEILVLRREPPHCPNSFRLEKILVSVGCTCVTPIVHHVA

B1: Clone 1.8 (VHH)
VHH: QVQLVESGGGLVQPGGSLRLSCAASGFTFSSYGMYWVRQAPGKGLEWVAKIEQDGSEKYYVDSVKGRFTISRDNAKNSLFLQMNSLRAEDTAVYYCAKGEILPLYFDYWGQGTLVTVSS
notes: Human single VH domain
Cell assay IC50 (nM), IL-17A-induced IL6 release from HT1080 [1]: 1.2 nM
Kd [2]: 0.616 nM
koff [2]: 0.000429 s⁻¹
kon [2]: 697000 M⁻¹ s⁻¹

B2: Clone 1.12 (VHH)
VHH: QVQLVESGGGLVQPGGSLRLSCAASGFTFSSYGMYWVRQAPGKGLEWVAKIEQDGSEEYYVDSVKGRFTISRDNAKNSLYLQMNSLRAEDTAVYYCAKGEILPLYFDYWGQGTLVTVSS
notes: Human single VH domain
Cell assay IC50 (nM), IL-17A-induced IL6 release from HT1080 [1]: 1.4 nM
Kd [2]: 0.724 nM
koff [2]: 0.00053 s⁻¹
kon [2]: 732000 M⁻¹ s⁻¹

B3: Clone 1.9 (VHH)
VHH: QVQLVESGGGLVQPGGSLRLSCAASGFTFSSYGMYWVRQAPGKGLEWVAEIKQDGSEKYYVDSVKGRFTISRDNAKNSLYLQMNSLRAEDTAVYYCAKGEILPLYFDYWGQGTLVTVSS
notes: Human single VH domain
Cell assay IC50 (nM), IL-17A-induced IL6 release from HT1080 [1]: 2.4 nM
Kd [2]: 0.529 nM
koff [2]: 0.000464 s⁻¹
kon [2]: 877000 M⁻¹ s⁻¹

B4: Clone 1.13 (VHH)
VHH: EVQLVESGGGLVQPGGSLRLSCAASGFTFSSYGMYWVRQAPGKGLEWVASIEQDGSEKYYVDSVKGRFTISRDNAKNSLYLQMNSLRAEDTAVYYCAKGEILPLYFDYWGQGTLVTVSS
notes: Human single VH domain
Cell assay IC50 (nM), IL-17A-induced IL6 release from HT1080 [1]: 1.2 nM
Kd [2]: 0.84 nM
koff [2]: 0.000515 s⁻¹
kon [2]: 614000 M⁻¹ s⁻¹

B5: Clone 1.11 (VHH)
VHH: EVQLVESGGGLVQPGGSLRLSCAASGFTFSSYQMYWVRQAPGKGLEWVASIKQDGSEEYYVDSVKGRFTISRDNAKNSLFLQMNSLRAEDTAVYYCAKGEILPLYFDYWGQGTLVTVSS
notes: Human single VH domain
Cell assay IC50 (nM), IL-17A-induced IL6 release from HT1080 [1]: 1.5 nM
Kd [2]: 0.845 nM
koff [2]: 0.000521 s⁻¹
kon [2]: 617000 M⁻¹ s⁻¹

B6: VH 1.18.1 (clone 1.18 expressed from phagemid vector: with linker residues and His tag) (VHH)
VHH: EVQLVESGGGLVQPGGSLRLSCAASGFTFSSYSMYWVRQAPGKGLEWVAEIKQDGSVQYYVGGVKGRFTISRDNAKNSLYLQMNSLRAEDTAVYYCAKGEILPLYFDYWGQGTLVTVSS
notes: Human single VH domain
Cell assay IC50 (nM), IL-17A-induced IL6 release from HT1080 [1]: 1.04 nM
Kd [2]: 0.366 nM
koff [2]: 0.000479 s⁻¹
kon [2]: 1.31e+06 M⁻¹ s⁻¹

B7: Clone 1.22 (VHH)
VHH: EVQLVESGGGLVRPGGSLRLSCAASGFTFSSYGMYWVRQAPGKGLEWVAKIEQDGSEEYYVDSVKGRFTISRDNAKKSLYLQMNSLRAEDTAVYYCAKGEILPLYFDYWGQGTLVTVSS
notes: Human single VH domain
Cell assay IC50 (nM), IL-17A-induced IL6 release from HT1080 [1]: 3.25 nM
Kd [2]: 0.223 nM
koff [2]: 0.000126 s⁻¹
kon [2]: 565000 M⁻¹ s⁻¹

B8: Clone 1.14 (VHH)
VHH: EVQLVESGGGLVQRGGSLRLSCAASGFTFSSYRMYWVRQAPGKGLEWVASIEQDGSEEYYVDSVKGRFTISRDNAKKSLFLQMNSLRAEDTAVYYCAKGEILPLYFDYWGQGTLVTVSS
notes: Human single VH domain
Cell assay IC50 (nM), IL-17A-induced IL6 release from HT1080 [1]: 2.9 nM
Kd [2]: 0.913 nM
koff [2]: 0.000688 s⁻¹
kon [2]: 753000 M⁻¹ s⁻¹

B9: VH 1.21.1 (clone 1.21 expressed from phagemid vector: with linker residues and His tag) (VHH)
VHH: EVQLVESGGGLVLPGGSLRLSCAASGFTFSSYSMYWVRQAPGKGLEWVAEIKQDGSEQYYVDSVKGRFTISRDNAKNSLYLQMNSLRAEDTAVYYCAKGEILPLYFDYWGQGTLVTVSS
notes: Human single VH domain
Cell assay IC50 (nM), IL-17A-induced IL6 release from HT1080 [1]: 2.05 nM
Kd [2]: 0.259 nM
koff [2]: 0.000205 s⁻¹
kon [2]: 792000 M⁻¹ s⁻¹

B10: VH 1.17.1 (clone 1.17 expressed from phagemid vector: with linker residues and His tag) (VHH)
VHH: EVQLVESGGGLVQPGGSLRLSCAASGFTFSSYSMYWVRQAPGKGLEWVAEIKPTGSVQYYVSDVKGRFTISRDNAKNSLYLQMNSLRAEDTAVYYCAKGEILPLYFDYWGQGTLVTVSS
notes: Human single VH domain
Cell assay IC50 (nM), IL-17A-induced IL6 release from HT1080 [1]: 1.91 nM
Kd [2]: 0.5 nM
koff [2]: 0.000462 s⁻¹
kon [2]: 923000 M⁻¹ s⁻¹
